Consider one molecule from patent US20060276386A1 (published 2006).

This assay deals with T1, C-terminally FLAG-tagged full length UCH-L5 (mouse, UniProt Q9WUP7 1-329).
T1 construct: range 1-329; Co-expressed in HEK-293 cells and immunoprecipitated with an anti-FLAG monoclonal; also called UCH-L5 FLAG
T1 sequence: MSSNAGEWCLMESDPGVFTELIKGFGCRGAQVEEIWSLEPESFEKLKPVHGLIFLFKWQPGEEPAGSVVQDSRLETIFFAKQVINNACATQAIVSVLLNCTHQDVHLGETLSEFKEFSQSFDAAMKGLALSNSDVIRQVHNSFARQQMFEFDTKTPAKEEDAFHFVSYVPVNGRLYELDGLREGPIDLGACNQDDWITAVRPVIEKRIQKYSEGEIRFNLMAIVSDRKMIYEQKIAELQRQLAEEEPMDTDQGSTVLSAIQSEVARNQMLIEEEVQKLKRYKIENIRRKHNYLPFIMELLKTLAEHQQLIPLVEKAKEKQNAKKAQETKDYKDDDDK
In words: co-immunoprecipitation: anti-FLAG IP, anti-HA western blot, HEK-293 lysates. The protocol:
C-terminally FLAG®-tagged UCH-L5 or UCH-L5ΔC were co-expressed in human embryonic kidney (HEK)—293 cells with N-terminally HA-tagged Smad proteins.
Referring to FIG. 3, HEK-293 cells were transfected with 20 μg of DNA construct directing the expression of UCH-L5 FLAG or UCH-L5ΔC FLAG and 20 μg of DNA construct expressing one of: HA-Smad 3₁₋₃₈₅; HA-Smad3₁₋₂₄₀; or HA-Smad3₁₋₄₄. Lysates of the cells were prepared by a standard detergent lysis method, using 1% Triton X-100 and then immunoprecipitated with an anti-FLAG monoclonal. The precipitated proteins were then subjected to SDS-PAGE.
For comparison, a blot of the same samples was then probed with a haemagglutinin-specific 1st antibody.
A general note: A western blot detects proteins with antibodies after separation by electrophoresis.

B1: N-terminally HA-tagged Smad3 residues 1-144 (other)
chain: MSSILPFTPPIVKRLLGWKKGEQNGQEEKWCEKAVKSLVKKLKKTGQLDELEKAITTQNVNTKCITIPRSLDGRLQVSHRKGLPHVIYCRLWRWPDLHSHHELRAMELCEFAFNMKKDEVCVNPYHYQRVETPVLPPVLVPRHT
notes: not shown: haemagglutinin (HA) tag, N-terminal
On to B1, for which the binding result was “no binding”.
